Assay results: the domain aggregation screens of Martell et al. (2025)

experiment: soluble fraction after stress (log2 fold change); higher = more stays soluble; pooled small domains, quantitative proteomics; conditions: stress: 50 degC
Outline: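 Pooled custom libraries of small protein domains were each held under stress at 50°C. The read-out, high-throughput quantitative proteomics, tracked how much of each protein stayed soluble. This is reported as a base-two log fold change used to indicate aggregation propensity. Higher values mean more protein remains in solution.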

First: HMSEKIDINNSNELELKQLPLTNEQIKSLIEFRRLHGEIQNIYELKNIDFFNIEKVHELKAHIEIKKII
Second: HMIELTTDYKKRVVEALVSARENYSGSDSDFARKWSIDKTVYSRLKKGYQEGLLSVGKYIELGMELNVSSR
The “soluble fraction (log2)” value of the first is higher: -0.427 for the first, -1.34 for the second.

“HMASPKEALWRSLAEEPDTWWDNRERKSQPGANPRSPDFKHKESGEALWIESRDTPTWVLETL” and “HMSKEIQNILASLPSVDVLLKQIDPIYPHGKAKEATQQVVARLRESVVDGTRKTVIDQKEVIAMIHKQLEE” are within 0.2 log units of each other in “soluble fraction (log2)” value: 0.1 for the first, 0.143 for the second.

“HMAPTGTDRQTPHTRDELYLVLSGTGTFVNGDARHPFGPGDALFVPAGAEHRFEDFSDDFRTWVVFYGAEG” and “HMGGKWKPIILYYININSVARYSELKRFIPSINERMLTRQLRELEEDNLIERKVYPIVPPKVEYRLTEYGK” are within 0.2 log units of each other in “soluble fraction (log2)” value: -0.162 for the first, 0.0177 for the second.

Going from “HMEYDYKVIDFFKDYYSYLNYQEIEPNILDKQLTTLTEEESAKIAGIMKLDYEDFTRGIEIVTGS” to “HMSVAVKAPLQGTVMKVNVKPGDTVTKGAPVAVIEALKMENDVPAPQDGVVASVDVKSGDSVKTDQVLLTL”, the “soluble fraction (log2)” value rises from -0.195 to 0.182.

Compared with “HMAMDVKEVLLPGVGLRYEFDNSDGDRIGVIAKRSGDFEVVRYTAADRDAAQPMFRLTDEEADALAQILGA”, “HMSVDEVEALYLKIAEDRLEGKLPDKVSESDLMRRYGLTKAQLGAILQRIVHEGWIERTPGHGWRFLPIL” is lower in “soluble fraction (log2)” value: 0.0786 for the first, -0.259 for the second.

Going from “HMSDTLPRLLWNFQMAKRLDEMNGAEKRRYQLVLIHPQASEKERDYASSFAHQARMLGIEVAIRDS” to “HMKKLPDDANDIIERVSSRLAQKFRFGYHTIDDMKQQAALFAWEGIYDSWDDSRPLENFLWIHVRNRLYN”, the “soluble fraction (log2)” value rises from -0.345 to -0.00948.

First: HMSDYYEVLGVTRQADAEEIKRAYRRKARQLHPDVAGPGHEEEFKEVTVAYEVLSDPEKRQAYDLGGQDAL
Second: HMNSRQPEEEALFELLAKNPYSDEQLEEIRIAIGSGISYKDVLVIADIKNTAKQMKKLRLKFTKDTG
The “soluble fraction (log2)” value of the first is higher: 0.179 for the first, -0.122 for the second.

“HMKQPVPDEIYFKRLANATEALGRYPRASERKKFGLNMSKRRYPTLTDFINKAIELGYVEDFR” and “HMKTGNPYAQRNTADMYNYGRGIEKDSYLAFVWYFAAYKQGNDNAKPQIDSITASGHLSPNQQLHAKIE” are within 0.2 log units of each other in “soluble fraction (log2)” value: -0.373 for the first, -0.464 for the second.

First: HMEKTIQIYDNIIIKDFAEKMEVSPSQVITKLIGLGVMANLNQPIDINSAVIVGKEFGFNVESM
Second: HMADNILPAQTDAIKALATENGFSNESLEKYLIENYGTTIYGLSRNQGIQIINLFQSENPPKP
The “soluble fraction (log2)” value of the first is lower: -0.674 for the first, 0.144 for the second.

Going from “HMTIRIPEEEYLTRAKRAAQMTAERGLDALFLFGSEGDFQNVRYFTSVTPIWERLGVVITASGKAAMLTGP” to “HMNPNEVQIPDLVNKTEDEAEQILKDLKLKLVVKSEEYNENIEKGKIISQDPPYQENYTIKEHSEISIVIS”, the “soluble fraction (log2)” value rises from -0.0521 to 0.42.

Going from “HMDVSASEVGLTGRQTDVLSLMVKGRSNRDIAELLGLSEGTVKIHITAIFKALGVASRTQALVAAARLGLK” to “HMSWEDSLLKQAREIIDMYPQKRSAVGPLLHLAQSKDGYISDDSISVISKLVGITEVQLKSVSTFYSMYK”, the “soluble fraction (log2)” value falls from -0.156 to -1.59.

Going from “HMKNVEEMILGKLKRKVSENLENASFEEIILVDAEKSVYKGIIKANYIEYYFRVNLSTGEVLSWKLK” to “HMGSLKISNPVKDTLWIQGVDGLKSIEIYSSTGQLVKTILGNQGDVSSLPKGVYFLKINTPSESLTAKIIK”, the “soluble fraction (log2)” value rises from -0.373 to -0.0698.

Compared with “HMAVGDMISKLRTAANMSQEQFAELFGVTRQSVQKWENSFSVPELEKLIKISKYFDVSLDALVLRSDARVT”, “HMAHSDEAWSVARRVARELDKILDGAGPRRTALVRAAAELRLSTRQIYNLLARYRADRTVTSLLPRR” is higher in “soluble fraction (log2)” value: -1.06 for the first, -0.316 for the second.

First: HMQVTGLTAENAHRVTMIREKGTDHPPVPFHFRKEHHGTGNYVHLYGNPEDRNELHSRDFKDWEAVAFK
Second: HMNMVSGHLQIKKGYYYVVLSYYDNRNKRHVKYVSTGLPEKGNKRKAEAALARVRSEFEPPQE
The “soluble fraction (log2)” value of the first is higher: 0.25 for the first, -3.55 for the second.

Going from “HMYMLYQQLADSLRDKIYEGTYTFGDKIPSERTLAATFGISHLTVRKALAILEEEGLLDRRQGNGTFVRV” to “HMIVDARNREINLGSHVRYVDTGTVGEVTDSKVENDASWVKIDKTNLWYLANKLELLNDEDFKT”, the “soluble fraction (log2)” value rises from -1.02 to 0.0653.

Compared with “HMQITTVSPKNYAEAELIGQRFREGNPVVMDLSKLDSDLGQRLVDFASGLVFALNGTVERIAKKVFLLSP”, “HMGKLYRDRYAPLEPDGARAGDRVFIISLEKEGTLERIDLPRKTATVLLGSSIRSTFPLDDLYQPRG” is higher in “soluble fraction (log2)” value: -0.943 for the first, 0.0151 for the second.

Compared with “HMFQTAADVAYRIISQKILDGEFPPGMKLSRRKMAEVTSVSVIPVIEALKKLEEDGLVESKPQWGSFVTI”, “HMKHMTMYEAAKIAKEVGAPKLWLTHYSPSMTRPEEFMDDVRKIFPAAYAAKDGWTMELNFDEG” is higher in “soluble fraction (log2)” value: -1.27 for the first, -0.493 for the second.

Compared with “HMISLPSYIREEATEVYNRLHDLGLEYTSLDVNDDSIPKGYVVRTVPEAGASVPAGQVVTVYVSLG”, “HMKKLTGVQKAAILMIALGPDISSSIIKRLPENMVERITYEIANMTKITAQQRNDILKEFMDMTVAQ” is lower in “soluble fraction (log2)” value: -0.446 for the first, -1.02 for the second.

Going from “HMSNYPYLLRTYEGKLAVFTDDLVQPDLVFDVYVRTLPELDQQQLSRGIRVKTYDELTSMIEDYI” to “HMKMPNGYGSITKLSGKRRKPWRVRKTAGWELDAKTQKLKQTYINIGYYETRADAMSALVSYNEDP”, the “soluble fraction (log2)” value rises from -1.13 to -0.898.

First: HMSDFSNLNLLELNSSELDLLLRRASSQGLTQMDLLKMARSQGLSEADLIKVKGKIDTSESIKR
Second: HMNKVDEEKNAELVSTIQNKFSDVSAATKKKVKAFMAEHDIPNFKNADEIPTANLEAIVAMLNED
The “soluble fraction (log2)” value of the first is lower: -0.0148 for the first, 0.229 for the second.

Going from “HMTLNTQLFTWKKGVRVGEDDQGNIYYRTKDDKRRWVIFTGETEATKVSPDWHGWLHRTWATPPNK” to “HMSTGYEMVREVANQGSFSKAANSLGVSGPAVSKQVKSLEERLGLVLFHRTTRAVSLTQAGRQLVDVLN”, the “soluble fraction (log2)” value rises from -2.39 to 0.0396.

“HMDDEDLAFLQREFVSYQQAMDYYGLGYKPVVRLSHISGSVYKIGKKVLIRRNIFEEYLRNHV” and “HMKAPPLTDREKEILRWVAAGLQNKEIAHKLGISLATVRNHIHNILEKLDVHSKLEAVSLAFRQGWVS” are within 0.2 log units of each other in “soluble fraction (log2)” value: -0.00496 for the first, -0.0741 for the second.

Compared with “HMADMKIHLRPYAHDTNRWHVDIRLMHPTAATEIRKRLVAPAGLSEAQARAWGERQVPTILGKALGVI”, “HMAVENTGLSKRELEILQMMARGMSNQEIGDALFISLSTVKTHVASIFSKLQAVRRTQAVGIAKSLKII” is lower in “soluble fraction (log2)” value: -0.415 for the first, -0.917 for the second.

Compared with “HMKIAPRTAENQQLRKMILEIYTTSKKRVGPAKVRRMLLRDYGISISIGRVYRLMSTMNLPKMS”, “HMNNLVTRREVEILGWIKEGKTTSDIAGILSLSPFTVKNHVQNILKKLGARSRSHAVAQAINLGLLH” is lower in “soluble fraction (log2)” value: -0.258 for the first, -0.773 for the second.

First: HMNVEATAETLLALLKKNGGSLPFGDKSDPEAIQSQLKMSKKTFKKAAGTLFKKKLVRIEDHGIFL
Second: HMSEQIALQFAKAKQHHTGIALKGIEALELRYKGYTGKEIAALYHTSPKSVFSWISRAKQKLRQN
The “soluble fraction (log2)” value of the first is lower: -0.657 for the first, -0.375 for the second.

Going from “HMEEEDELALFLREERKNYDLTLTDVHEKTGIPQKVLKEFQWGDAQLTDRQRYTLTQYVEEAREYFQENA” to “HMQITNEGQIKLVISEVLNENQEQKKQYLSGKEQVLGYLIGKVMQKTKGKANPKLVNDLMIKELS”, the “soluble fraction (log2)” value rises from 0.0369 to 0.257.

Compared with “HMETYTVPEVLGLTPEQAAQLPEVKDIFTLDVKEEGDFSDKPVGTIVRQSPTEGEHRKGDNLVIEVWLSV”, “HMTFNLDVDGDDQVTALGDGLMIIRKLFGATFAGDALTNKAISPDATRTTDEIHAYIEKGITSGVLD” is lower in “soluble fraction (log2)” value: -0.0593 for the first, -0.268 for the second.

First: HMGPRPLPAEFTHPSLRALLALGTTRGGVTSADVKTALEAASVPAGRRAAVLRALDDNGIEVHTEP
Second: HMISAVDLMAARRKIEAGITNLQPGQAFTLPNKVGWVKRMTGGSYFIQGNGGYTASVRTISEAIQAAAMLL
The “soluble fraction (log2)” value of the first is higher: 0.0376 for the first, -0.394 for the second.

“HMNTSSVTVHYQDEAGKSLADTVTLTGKVGETYSSEQKKITGYNFKEVRGNPKGQFTTEAQTVTYVYTQAA” and “HMNENDPRVIKTRRLLLDSFVVLVRKKDFTSISVKDITDSAQVNRATFYAHFQDKYDILEYMVID” are within 0.2 log units of each other in “soluble fraction (log2)” value: 0.156 for the first, 0.112 for the second.

Going from “HMLNMTLGDRIRSRREELRMSQEELATRLGYKSRSTIAKIESGENDLTQSKIVAFAEALSTTARWLLDY” to “HMKTFSTRLIALREAIGVNQSELARRVGVTPQAVQKWESGANGPRGKRLEKLASELRSTVGYLVSGEGDG”, the “soluble fraction (log2)” value rises from -1.04 to -0.446.

First: HMRIPANIAEDIKKLQKKEHHLHHHLGRDPFDDELAKELEWDTEQVSEIRQMIKNPELLEELLEAEREEE
Second: HMKGRPTTAIITDERTNLRSGPGATNKTIAQAGAGEKLAIIDEKDGWYQVSRAGINGWVAGWVIDVAW
The “soluble fraction (log2)” value of the first is higher: 0.172 for the first, -0.441 for the second.

First: HMDYIITHYPDNKRFETQVDGVVAFVQYRLSGDKLDIIHTIVPPAIGGRGIAAALVKYAYDYAIENGMK
Second: HMKYTVKSPLPGVIMSVLVKVGDTVKASDTVISLEAMKMENAIHAGRDGKVTSIDVNVGDSVLEGHTLVTI
The “soluble fraction (log2)” value of the first is lower: -0.76 for the first, -0.386 for the second.

Going from “HMSSAVKRALAELPENWRMIVYYRVVEGLSYAEIAKVLDIPDGSVMSGLHRGKKMLRGLLLEYAQQEGYD” to “HMSNHYETLGVEQTASVDEIKKAYRRLSLQYHPDRNTTSDAVGKFQKINDAHEILSDKQSRTEYDMQLK”, the “soluble fraction (log2)” value rises from -1.72 to 0.214.

First: HMHPRDREENKYLLLRGERIYEESIGEKRLYVEAALHKYEKALSSYDTGLIDEAKEEFKKFLEEIEEA
Second: HMGRGSEDEQMRGLAVILAEQKQIMQTLGVENEVVKPEQYINTLKRMAELNGFKDTDQFFSIPQ
The “soluble fraction (log2)” value of the first is lower: -0.0765 for the first, 0.339 for the second.

First: HMEDKIIVTVPGEYHLERIDRFLAANLEEDLSRSLIQRYIRENLITVNGEAVRANYKVKTDDEILITFPQ
Second: HMEMLQRFIFLENVSSTQVESAIKELHPNLNLKRVKLSFPGADTVLLKGPKQDLELAEELIRHLDRSE
The “soluble fraction (log2)” value of the first is lower: -0.603 for the first, -0.0342 for the second.

First: HMSQSLSGWAAKDLEVKSGADASYRTVGRLPKGSKVSGKIINGYLHIEFDGSMRYVPVSGISKTE
Second: HMRDTLSKQLLTEEMVLQFIREMREHDPGIGGEKLHAMYLGRFGRDYEYMVGRDKMEMIIAENNLNVR
The “soluble fraction (log2)” value of the first is higher: -0.134 for the first, -0.736 for the second.

Going from “HMTDVRFIDIPVTEHHPWNGMKVRDLQLPPGTLLVFLSHPGEKNTVPHGETVLRSGDVLVLGATAYTGQ” to “HMQVPFGFQRNPSTGTLEEKAEEQLIINQVLSLKNSGIGVSEISKRLGELSVSRIYRIINTAKKNAS”, the “soluble fraction (log2)” value falls from -0.0558 to -0.366.

With “HMSKYGIAYSEVLEILKHIPIEDYNKIPRNEIELFETYADKDFTFNYDSSKTLEEQNVSNITKGIIIL” the “soluble fraction (log2)” value was -0.103.
